According to publication PMC3214010:

Legend:
[1] = target: human Dcn1 potentiating neddylation domain (hDcn1^P) (human) (UniProt Q96GG9); assay: ITC
[2] = target: yeast Dcn1 potentiating neddylation domain (yDcn1^P) (yeast) (UniProt Q12395); assay: ITC
Chain of UniProt Q12395 (Q12395 70-269): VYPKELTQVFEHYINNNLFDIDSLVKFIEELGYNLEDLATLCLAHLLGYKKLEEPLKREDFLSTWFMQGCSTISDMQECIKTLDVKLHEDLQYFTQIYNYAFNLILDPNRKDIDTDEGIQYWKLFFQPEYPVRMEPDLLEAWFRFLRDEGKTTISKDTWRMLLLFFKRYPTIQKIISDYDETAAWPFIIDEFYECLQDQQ

Chain of UniProt Q96GG9 (Q96GG9 62-259): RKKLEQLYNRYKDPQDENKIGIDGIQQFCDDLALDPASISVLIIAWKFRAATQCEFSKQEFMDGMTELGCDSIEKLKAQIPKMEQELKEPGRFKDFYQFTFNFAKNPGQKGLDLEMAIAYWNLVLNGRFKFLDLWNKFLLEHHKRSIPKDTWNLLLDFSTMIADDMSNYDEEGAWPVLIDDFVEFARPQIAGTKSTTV

Row | Substance | fold change of Kd against the acetylated peptide (weaker binding) [1] [fold] | fold improvement of binding over the unacetylated peptide [1] [fold] | fold change of Kd against the acetylated peptide (weaker binding) [2] [fold] | fold improvement of binding over the unacetylated peptide [2] [fold]
1 | N-terminally formylated human Ubc12 peptide | 9 | 10 | – | –
2 | N-terminally formylated yeast Ubc12 peptide | – | – | 17 | 10
